Measurements reported in patent US20150056222A1 (Regeneron, published 2015).
Numbering of substitutions follows the chain as printed. Names may count otherwise.

T1: human prolactin receptor (PRLR) on cells (human, UniProt P16471 25-622)
T1 construct: T47D, T47D#11 and MCF7 carry the endogenous receptor; also called hPRLR; HEK293/hPRLR
T1 sequence: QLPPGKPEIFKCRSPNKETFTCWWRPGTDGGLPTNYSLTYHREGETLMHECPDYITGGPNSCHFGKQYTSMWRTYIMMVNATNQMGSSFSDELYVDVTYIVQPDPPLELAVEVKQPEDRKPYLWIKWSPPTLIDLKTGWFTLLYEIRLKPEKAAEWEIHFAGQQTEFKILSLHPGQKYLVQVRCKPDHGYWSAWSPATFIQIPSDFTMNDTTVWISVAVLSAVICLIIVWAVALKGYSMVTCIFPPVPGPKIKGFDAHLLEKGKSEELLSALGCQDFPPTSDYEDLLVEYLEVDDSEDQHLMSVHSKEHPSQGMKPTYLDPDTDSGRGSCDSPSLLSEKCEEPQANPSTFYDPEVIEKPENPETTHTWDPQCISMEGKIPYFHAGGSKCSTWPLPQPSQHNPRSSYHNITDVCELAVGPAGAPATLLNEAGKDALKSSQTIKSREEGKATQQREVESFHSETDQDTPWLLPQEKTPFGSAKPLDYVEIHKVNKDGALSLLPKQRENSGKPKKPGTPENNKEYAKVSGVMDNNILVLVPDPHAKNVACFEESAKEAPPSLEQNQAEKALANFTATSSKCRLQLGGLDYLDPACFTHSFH

T2: human prolactin receptor (PRLR), cell surface-expressed (human, UniProt P16471 25-622)
T2 sequence: T1 sequence

T3: monkey (macaca fascicularis) PRLR on HEK293 cells (macaca fascicularis, UniProt A0A2K5WXK1 25-619)
T3 construct: also called mfPRLR; HEK293/mfPRLR
T3 sequence: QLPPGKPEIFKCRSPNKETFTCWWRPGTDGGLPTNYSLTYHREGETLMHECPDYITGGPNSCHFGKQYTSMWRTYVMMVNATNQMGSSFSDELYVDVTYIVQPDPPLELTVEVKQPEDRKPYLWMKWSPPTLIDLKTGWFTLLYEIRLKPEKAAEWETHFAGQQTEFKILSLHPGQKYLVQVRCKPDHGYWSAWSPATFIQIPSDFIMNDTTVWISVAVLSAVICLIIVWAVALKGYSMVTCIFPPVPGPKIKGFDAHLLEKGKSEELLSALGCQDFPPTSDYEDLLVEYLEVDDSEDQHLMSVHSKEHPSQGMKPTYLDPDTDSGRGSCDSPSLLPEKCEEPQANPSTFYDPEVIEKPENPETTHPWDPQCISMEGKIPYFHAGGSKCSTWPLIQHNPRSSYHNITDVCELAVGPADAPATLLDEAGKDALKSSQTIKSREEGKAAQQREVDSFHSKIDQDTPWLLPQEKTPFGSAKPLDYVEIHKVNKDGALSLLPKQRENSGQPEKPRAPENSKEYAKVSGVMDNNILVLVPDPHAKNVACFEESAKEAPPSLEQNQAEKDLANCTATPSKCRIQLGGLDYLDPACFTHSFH

T4: hPRLR.mFc (soluble dimeric human PRLR) (human)
T4 construct: dimeric construct
T4 chain: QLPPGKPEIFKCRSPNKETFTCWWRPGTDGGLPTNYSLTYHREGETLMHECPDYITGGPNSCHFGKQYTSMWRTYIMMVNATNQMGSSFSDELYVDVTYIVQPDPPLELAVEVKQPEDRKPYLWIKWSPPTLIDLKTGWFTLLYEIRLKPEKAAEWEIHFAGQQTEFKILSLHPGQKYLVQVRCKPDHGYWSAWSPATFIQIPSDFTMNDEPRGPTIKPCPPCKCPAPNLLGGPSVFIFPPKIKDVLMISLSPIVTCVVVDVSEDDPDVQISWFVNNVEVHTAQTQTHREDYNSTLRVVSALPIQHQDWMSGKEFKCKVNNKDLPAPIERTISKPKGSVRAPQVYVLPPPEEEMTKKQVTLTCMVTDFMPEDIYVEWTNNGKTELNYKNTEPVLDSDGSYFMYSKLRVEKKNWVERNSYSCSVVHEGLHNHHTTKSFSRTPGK

T5: hPRLR.mmh (soluble monomeric human PRLR) (human)
T5 construct: soluble monomeric construct
T5 chain: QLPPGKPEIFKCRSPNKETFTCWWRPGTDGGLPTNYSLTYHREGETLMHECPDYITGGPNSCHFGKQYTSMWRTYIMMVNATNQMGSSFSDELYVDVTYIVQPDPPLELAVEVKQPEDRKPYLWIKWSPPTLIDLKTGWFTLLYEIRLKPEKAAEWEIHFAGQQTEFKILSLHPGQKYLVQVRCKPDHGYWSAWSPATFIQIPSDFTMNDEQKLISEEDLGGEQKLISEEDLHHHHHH

T6: mfPRLR.mmh (soluble monomeric macaca fascicularis PRLR) (macaca fascicularis)
T6 construct: soluble monomeric construct; also called macaca fascicularis (mf) PRLR.mmh
T6 chain: T5 chain with I76V, A110T, I125M, I158T, T207I

T7: mouse PRLR on HEK293 cells (mouse, UniProt Q08501 20-608)
T7 construct: whole, on cells; also called mPRLR; HEK293/mPRLR
T7 sequence (looked up): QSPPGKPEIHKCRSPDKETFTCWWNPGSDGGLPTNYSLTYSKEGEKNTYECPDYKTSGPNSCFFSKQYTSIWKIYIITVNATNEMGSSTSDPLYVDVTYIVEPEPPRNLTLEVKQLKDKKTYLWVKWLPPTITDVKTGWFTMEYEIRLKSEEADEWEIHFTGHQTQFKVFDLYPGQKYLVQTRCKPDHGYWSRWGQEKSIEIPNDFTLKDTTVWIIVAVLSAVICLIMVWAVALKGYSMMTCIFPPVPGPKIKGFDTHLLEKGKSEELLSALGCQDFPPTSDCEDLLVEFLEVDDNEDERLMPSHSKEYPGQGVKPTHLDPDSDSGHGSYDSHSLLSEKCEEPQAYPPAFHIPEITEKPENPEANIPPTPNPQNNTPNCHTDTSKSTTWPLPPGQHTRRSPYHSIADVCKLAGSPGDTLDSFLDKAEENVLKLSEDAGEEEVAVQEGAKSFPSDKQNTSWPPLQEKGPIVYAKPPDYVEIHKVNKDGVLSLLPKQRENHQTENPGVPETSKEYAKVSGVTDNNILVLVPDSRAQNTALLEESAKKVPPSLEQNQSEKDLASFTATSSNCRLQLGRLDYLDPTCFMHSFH

B1: H1H6790P (antibody, human IgG1, V domains shown)
VH: EVQLVESGGGLVQPGGSLRLSCAASGFTFSSYAMTWVRQAPGKGLEWVSAITGSVGNTYYADSVKGRFTISRDNSKNTLYLQMNSLGAEDTAEYYCAKGAGMTTNWYLDLWGRGTLVTVSS
VL: DIVMTQSPDSLAVSLGARATINCKSSQSVLYSSNNQNYLTWYQQKPGQPPKLLIKWASTRESGVPDRFSGSGSGTDFTLTISSLQAEDVAVYYCQQYASSPYTFGQGTKLEIK
notes: human IgG1 Fc (H1H)
B2: H1H6966N (antibody, human IgG1, V domains shown)
VH: QVQLVQSGAEVQKPGASVKVSCKVSGYTLTALSIHWVRQAPGKGLEWMGNFDPGDGETIHAQKFQGRVTMTGDTSTDTAYMELSSLRSEDTAVYYCVGVTFDYWGQGTLVTVSS
VL: EIVMTQSPATLSVSPGERATLSCRASQSVASNLAWYQQKPGQAPRLLLYGASTRATGIPARFSGSGSGTEFTLTISSLQSEDFALYYCQHYNNWPLTFGGGTKVEIK
notes: also called H2M6966N
B3: H1H6804P (antibody, human IgG1, V domains shown)
VH: QVTLKESGPVLVKPTQTLSLTCTVSGFSLSDAGMGVSWIRQPPGKALEWLAHIFSNDGKSYSTSLKSRLTISKDTSKRQVVLTMTNMDPVDTATYYCARIRTGTYSLYLDYWGQGTLVTVSS
VL: DIQMTQSPSSLSASVGDRVTITCRASQSINSYLNWYQQKPGKAPKLLLYFASSLQSGVPSRFSGSGSGTDFTLTISSLQPEDFASYYCQESYSTPWTFGQGTKVEIK
notes: human IgG1 Fc (H1H)
B4: H1H6960N (antibody, human IgG1, V domains shown)
VH: EVQLVESGGGLVKPGGSLRLSCAASGITFSSYSMNWVRQAPGKGLEWVSSISTRSSLIHYADSVKGRFTISRDNAKNSLYLQMNSLRDEDTAVYYCARWDAAAAFDYWGQGTLVIVSS
VL: DIQLTQSPSFLSASVGDRVTITCWASQGISSYLAWYQQKPGKAPKLLIYVASTLQSGVPSRFSGSGSGTEFTLTISSLQPEDFATYFCQQLNSYPLTFGGGTKVEIK
notes: also called H2M6960N
B5: H1H6807P (antibody, V domains shown)
VH: QVQLVESGGGVVQPGRSLRLSCAASGFTFSDYNMHWVRQAPGKGLEWVAVIWYDGSNKHYADSVKGRFTISRDNSKNTLYLQMNSLRAEDTAVYYCARDGFTIFGMVLDYWGQGTLVTVSS
VL: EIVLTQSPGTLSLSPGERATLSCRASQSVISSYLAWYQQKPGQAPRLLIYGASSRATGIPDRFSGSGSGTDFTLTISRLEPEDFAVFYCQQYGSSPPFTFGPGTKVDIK
notes: human IgG1 Fc (H1H)
B6: H1H6797P (antibody, human IgG1, V domains shown)
VH: EVQLVESGGGLVQPGGSLRLSCIVSGFTFSGSWMSWVRQLPGKGLEWVANIKEDGSDSYYVDSVEGRFTISRDNAKSSLYLQMNSLRVDDTAVYFCARARTVPLHYWGQGTLVTVSS
VL: DIQMTQSPSTLSASVGDRVTITCRASQSINIWLAWYQQKPGKAPKLLIYRASYLESGVPSSFAGGGSGTEFTLTISSLQPDDFGTYYCQHYNSYPFTFGQGTKLEIK
notes: human IgG1 Fc (H1H)
B7: H1H6782P-SMCC-DM1 (antibody, human IgG1, V domains shown)
VH: EVQLVESGGGLVQPGRSLRLSCAASGFTFDDYAMHWVRQAPGKGLEWVSGIIWNSGHIGYGDSVKGRFTISRDNAKKSLYLQMNSLRAEDTALYYCARDSGRYQSYFDYWGQGTLVTVSS
VL: DIQMTQSPSTLSASVGDRVTITCRASHIISSWLAWYQQKPGKAPKVLIFKASSLESGVPSRFSGSGSGTEFTLTISSLQPDDFATYYCQQYNTYSRTFGQGTKVEIK
modifications: DM1 conjugated through an SMCC linker; attachment residues not stated

Target: T1, human prolactin receptor (PRLR) on cells
Assay: FACS, HEK293/hPRLR cells; also: test concentration or dose not given here

| FACS Cell Binding (Fold Above Background) | Binder |
| --- | --- |
| 37 fold above background | B1 |
| 29 fold above background | B2 |
| 1 fold above background | B3 |
| 29 fold above background | B4 |
| 32 fold above background | B5 |
| 1 fold above background | B6 |

Target: T2, human prolactin receptor (PRLR), cell …
Assay: cell-based or functional assay

| Binder | IC50, cell viability, T47D cells |
| --- | --- |
| B7 | 1 nM |

Target: T1, human prolactin receptor (PRLR) on cells
Assay: cell-based or functional assay

| % Internalization relative to Control I (alexa488 intensity in intracellular vesicles at 37 C, T47D cells) | Binder |
| --- | --- |
| 147% | B1 |
| 137% | B2 |
| 139% | B3 |
| 120% | B4 |
| 147% | B5 |
| 145% | B6 |

Target: T3, monkey (macaca fascicularis) PRLR on …
Assay: FACS, HEK293/mfPRLR cells; also: test concentration or dose not given here

| FACS Cell Binding (Fold Above Background) | Binder |
| --- | --- |
| 24 fold above background | B1 |
| 18 fold above background | B2 |
| 29 fold above background | B3 |
| 23 fold above background | B4 |
| 27 fold above background | B5 |
| 25 fold above background | B6 |

Target: T4, hPRLR.mFc (soluble dimeric human PRLR)
Assay: SPR, 37C, mAb capture
Experimental: (§1) Measurements were conducted on a T200 Biacore instrument. Kinetic association (kₐ) and dissociation (kd) rate constants were determined by processing and fitting the data to a 1:1 binding model using Scrubber 2.0 curve fitting software. Binding dissociation equilibrium constants (KD) and dissociative half-lives (t_{1/2}) were calculated from the kinetic rate constants as: KD (M)=kd/kₐ; and […].

| T½ | Binder |
| --- | --- |
| 58 min | B1 |
| 91.3 min | B2 |
| 56 min | B3 |
| 78.7 min | B4 |
| 105 min | B5 |
| 93 min | B6 |

Target: T5, hPRLR.mmh (soluble monomeric human PRLR)
Assay: SPR, 37C, mAb capture
Experimental: as §1

| T½ | Binder |
| --- | --- |
| 4 min | B1 |
| 12 min | B2 |
| 3 min | B3 |
| 5.8 min | B4 |
| 34 min | B5 |
| 1 min | B6 |

Target: T6, mfPRLR.mmh (soluble monomeric macaca …)
Assay: SPR, 37C, mAb capture
Experimental: as §1

| T½ | Binder |
| --- | --- |
| 4 min | B1 |
| 9.6 min | B2 |
| 3 min | B3 |
| 9 min | B4 |
| 32 min | B5 |
| 1 min | B6 |

Target: T1, human prolactin receptor (PRLR) on cells
Assay: FACS, T47D cells (native PRLR); also: test concentration or dose not given here

| FACS Cell Binding (Fold Above Background) | Binder |
| --- | --- |
| 34 fold above background | B1 |
| 31 fold above background | B2 |
| 34 fold above background | B3 |
| 33 fold above background | B4 |
| 34 fold above background | B5 |
| 38 fold above background | B6 |

Target: T7, mouse PRLR on HEK293 cells
Assay: FACS, HEK293/mPRLR cells; also: test concentration or dose not given here

| FACS Cell Binding (Fold Above Background) | Binder |
| --- | --- |
| 1 fold above background | B1 |
| 1 fold above background | B2 |
| 1 fold above background | B3 |
| 1 fold above background | B4 |
| 2 fold above background | B5 |
| 2 fold above background | B6 |
